In US20080176953A1, “Methods and compositions for treatment of ocular neovascularization and neural injury” (Allergan, Inc., priority 2000, published 2008):

B1: PEDF: polypeptide originally isolated from cultured fetal human retinal pigment epithelial cells, approximate molecular weight 50 kDa (protein, UniProt P36955 20-418, looked up)
Pigment epithelium-derived …: QNPASPPEEGSPDPDSTGALVEEEDPFFKVPVNKLAAAVSNFGYDLYRVRSSTSPTTNVLLSPLSVATALSALSLGAEQRTESIIHRALYYDLISSPDIHGTYKELLDTVTAPQKNLKSASRIVFEKKLRIKSSFVAPLEKSYGTRPRVLTGNPRLDLQEINNWVQAQMKGKLARSTKEIPDEISILLLGVAHFKGQWVTKFDSRKTSLEDFYLDEERTVRVPMMSDPKAVLRYGLDSDLSCKIAQLPLTGSMSIIFFLPLKVTQNLTLIEESLTSEFIHDIDRELKTVQAVLTVPKLKLSYEGEVTKSLQEMKLQSLFDSPDFSKITGKPIKLTQVEHRAGFEWNEDGAGTTPSPGLQPAHLTFPLDYHLNQPFIFVLRDTDTGALLFIGKILDPRGP

Legend:
[1] = test system: photoreceptors; conditions: intravitreal injection of purified NGF; cited from earlier work
[2] = test system: brain neurons in culture; conditions: cited from earlier work
[3] = test system: retinoblastoma cells; conditions: cited from earlier work
[4] = test system: "wet" age-related macular degeneration (ARMD); experiment: Photodynamic therapy (verteporfin) combined with intravenous PEDF in a patient, Example 1; format: in vivo
Experimental: The day of scheduled PDT treatment, the patient is administered 6 mg/M^2 of verteporfin. […] The treatment requires irradiation of the […].

Molecule	survival of photoreceptors [1]	life of brain neurons in culture [2]	protection against acute neurotoxic insult ([2]; e.g., glutamate toxicity)	differentiation of the retinoblastoma cells [3]	activity after heat incubation ([3]; incubation of PEDF at 75° C.)	elaboration of neuron-like processes ([3]; undifferentiated retinoblastoma cells)	visual acuity ([4]; 4 and 12 weeks following combined PDT and PEDF treatment)	renewed neovascularization ([4]; 12 weeks following PDT treatment)	optic nerve axon loss ([4]; after PDT with irradiation of the optic nerve)	Fluorescein angiography, leakage in the treated tissue ([4]; after one week and throughout the monitoring period)	visual inspection of the retina (affected areas) ([4]; one week following PDT, continuing through 12 week monitoring, intravenous PEDF every two days, verteporfin 6 mg/M^2)
NGF: polypeptide known to have neuroprotective and neurotrophic effects	Increased survival of photoreceptors	–	–	–	–	–	–	–	–	–	–
B1	–	prolongs the life	protects neurons	induces differentiation	does not prevent PEDF from differentiating retinoblastoma cells	stimulate the elaboration of neuron-like processes	no discernable loss of vision	No evidence of renewed neovascularization	no evidence of optic nerve axon loss	minimal leakage	healthy with no whitening
